The target in data set [1] is T1, Csa3a (Sulfolobus islandicus REY15A) (UniProt F0NH46).
T1 sequence: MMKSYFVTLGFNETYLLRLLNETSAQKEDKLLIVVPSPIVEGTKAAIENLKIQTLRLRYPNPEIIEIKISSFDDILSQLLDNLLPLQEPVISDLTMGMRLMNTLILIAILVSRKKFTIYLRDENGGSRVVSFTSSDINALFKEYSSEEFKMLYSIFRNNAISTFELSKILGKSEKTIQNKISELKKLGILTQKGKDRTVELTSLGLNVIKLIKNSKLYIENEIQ
The data set is described as follows: EMSA. The note with it: EMSA: 20 mM Tris-HCl pH 8.0, 50 mM KCl, 5% glycerol, 1 mM EDTA, 1 mM DTT, 5 ng/ul poly(dI-dC), 10 pmol probe in 20 ul, 40 C 20 min; footprinting: 10 mM …. (In general: Mobility shift assays separate free from complexed probe on a gel.)

In data set [2] the target is T2, Csa3a (Sulfolobus islandicus REY15A, UniProt F0NH46 1-224).
T2 sequence: T1 sequence
In words: EMSA; Csa3a 1.6 pmol/ul; EMSA: 20 mM Tris-HCl pH 8.0, 50 mM KCl, 5% glycerol, 1 mM EDTA, 1 mM DTT, 5 ng/ul poly(dI-dC), 10 pmol probe in 20 ul, 40 C 20 min; footprinting: 10 mM Tris-HCl pH 7.4, 10 mM MgCl2, 1 mM CaCl2, 0.4 mM DTT, 100 mM KCl, 5% glycerol, 40 C 20 min. The note with it: protein: recombinant; chain copies: 2; label: 5' biotin (one strand); blunt.

For data set [3], the target named is T2, Csa3a. In words: EMSA; Csa3a 2.4-6 pmol/ul; EMSA: 20 mM Tris-HCl pH 8.0, 50 mM KCl, 5% glycerol, 1 mM EDTA, 1 mM DTT, 5 ng/ul poly(dI-dC), 10 pmol probe in 20 ul, 40 C 20 min; footprinting: 10 mM Tris-HCl pH 7.4, 10 mM MgCl2, 1 mM CaCl2, 0.4 mM DTT, 100 mM KCl, 5% glycerol, 40 C 20 min. The note with it: protein: recombinant; chain copies: 2; label: 5' biotin (one strand); blunt.

The target in data set [4] is T2, Csa3a. In words: EMSA; Csa3a 0.4-1.6 pmol/ul; EMSA: 20 mM Tris-HCl pH 8.0, 50 mM KCl, 5% glycerol, 1 mM EDTA, 1 mM DTT, 5 ng/ul poly(dI-dC), 10 pmol probe in 20 ul, 40 C 20 min; footprinting: 10 mM Tris-HCl pH 7.4, 10 mM MgCl2, 1 mM CaCl2, 0.4 mM DTT, 100 mM KCl, 5% glycerol, 40 C 20 min. Conditions: protein: recombinant; chain copies: 2; label: 5' biotin.

For the molecule “GCAAAAAGAATCTAAAATACACAATAATGATCCTTGTAAATTTCTTCCCGACTTTAGTAAGGATAATCTTAATAAACGACGATTTTCCTCTTGATGAAGAATAATGGAAAATATAGGGAAAGTGTTCTCCCGTATACGATCCTTGTTTTCCTTTTTCCTTGTTTCGTTTTGGGTTAGGTTGTTATCCTAAATTCATTATCTT (double strand) [csa1 promoter P1 (-205 to -4)]”, the binding result in data set [1] is given as “binds”.

For “TATATTTTCCATTATTCTTCATCAAGAGGAAAATCGTCGTTTATTAAGATTATCCTTACTAAAGTCGGGAAGAAATTTACAAGGATCATTATTGTGTATTTTAGATTCTTTTTGC (double strand) [csa1 promoter P2 (-118 to -4)]”, the binding result in data set [1] is reported as “binds”.

B1: csa1 promoter P3 (-42 to -4) (dsDNA)
DNA 1: TTACAAGGATCATTATTGTGTATTTTAGATTCTTTTTGC
DNA 2: GCAAAAAGAATCTAAAATACACAATAATGATCCTTGTAA
Take B1: the binding result with Csa3a [2] is reported as “no binding”.

B2: cas1 P2 (-35 to -10) (dsDNA)
DNA 1: TTAAGACCTTAATAATATCGGAATAT
DNA 2: ATATTCCGATATTATTAAGGTCTTAA
On to B2, for which the binding result with Csa3a [3] was “no binding”.

B3: csa1 25-bp minimal region (dsDNA)
DNA 1: ATCCTTACTAAAGTCGGGAAGAAATT
DNA 2: AATTTCTTCCCGACTTTAGTAAGGAT
With B3, in the data set with Csa3a [4], the binding result is listed as “binds”.

The values above are taken from article PMC4333418, “Transcriptional regulator-mediated activation of adaptation genes triggers CRISPR de novo spacer acquisition”.
